In the data set the target is T1, LmrR (Lactococcus lactis, UniProt A2RI36 1-116).
T1 sequence: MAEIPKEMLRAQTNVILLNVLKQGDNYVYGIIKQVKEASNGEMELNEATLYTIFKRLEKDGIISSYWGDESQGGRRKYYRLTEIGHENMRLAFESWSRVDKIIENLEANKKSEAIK
As to the kind of experiment: ITC; apo; 2 LmrR dimers per DNA; 10 mM NaPi pH 6.8, 100 mM NaCl, 25 C (ITC; same buffer for NMR); 5% DMSO in riboflavin titrations. The following applies: protein: recombinant; tags: C-terminal His6; chain copies: 4. On the technique in general: In ITC the heat of successive injections is recorded.

B1: lmrCD operator 33 bp (dsDNA)
DNA 1: CAATTTAATGTAAAGTAGTTTACATTATTTAAC
DNA 2: GTTAAATAATGTAAACTACTTTACATTAAATTG
What is called Kd is the equilibrium constant for the complex coming apart. Turning to B1, the Kd is 64 ± 22 nM.
